T1: NR2F2 (COUP-TFII) (Mus musculus, UniProt P43135 P43135:1-414)
T1 sequence: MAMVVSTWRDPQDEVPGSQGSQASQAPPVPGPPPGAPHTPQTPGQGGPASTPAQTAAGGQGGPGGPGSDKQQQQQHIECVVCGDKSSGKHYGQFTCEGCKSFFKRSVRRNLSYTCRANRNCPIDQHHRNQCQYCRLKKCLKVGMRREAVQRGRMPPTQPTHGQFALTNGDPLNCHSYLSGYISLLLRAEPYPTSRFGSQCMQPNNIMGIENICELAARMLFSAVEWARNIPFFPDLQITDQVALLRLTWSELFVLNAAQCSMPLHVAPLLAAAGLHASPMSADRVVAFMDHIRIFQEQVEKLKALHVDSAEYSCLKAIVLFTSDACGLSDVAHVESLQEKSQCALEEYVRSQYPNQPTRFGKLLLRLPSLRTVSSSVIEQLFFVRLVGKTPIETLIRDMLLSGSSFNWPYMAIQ


Experiments:
[1] = biological target: T1, NR2F2 (COUP-TFII); assay: EMSA; 4 C, 20 mM Tris pH 8.0, 10 mM KCl, 20% glycerol; super-shifted by anti-NR2F2; outcompeted by unlabeled wild-type probe; conditions: tags: GST (pGEX2TK, E. coli BL21)
Text: (§1) In each case, disruption of the Ets, SoxF or NHR motifs led to a significant reduction or complete loss of GFP expression in CHT ECs (see e.g., FIG. 3F). In control constructs where mutations were targeted to intervening sequences between the Ets, SoxF and NHR motifs, GFP expression was unperturbed (see e.g., FIG. 3F). Studies of arterial-venous specification in zebrafish have shown that the NHR Nr2f2, also known as COUP-TFII, promotes venous endothelial cell fate (see e.g., Aranguren et al. Transcription factor COUP-TFII is indispensable for venous and lymphatic development in zebrafish and Xenopus laevis. Biochemical and biophysical research communications 410, 121-126, 2011). To test whether Nr2f2 could directly bind the enhancer sequences, an in vitro gel electrophoretic mobility shift assay was performed. Incubation of murine NR2F2-GST protein with labeled probe from either the 125 bp mrc1a or 158 bp sele zebrafish enhancers led to DNA:protein complexes that were super-shifted upon addition of an NR2F2 antibody and could be outcompeted by an unlabeled competitor probe (see e.g., FIG. 10A-FIG. 10E).
(§2) The Nr2f2 fragment was cloned into the pGEX2TK™ vector to generate GST-tagged Nr2f2 and fidelity was verified by sequencing. The pGEX2TK-Nr2f2 protein plasmid was transformed into E. coli BL21 competent cells. Proteins were expressed and purified, and purified proteins were quantified against BSA. EMSAs were performed. Probes were generated by annealing 100 pmol of sense and antisense oligonucleotides, and 1-2 pmol of probe was used in each reaction. Gel shift reactions were conducted at 4° C. in 20% glycerol, 20 mM Tris (pH 8.0), 10 mM KCl, 1 mM DTT, 12.5 ng poly dI/C, 6.25 pmol of random, single-stranded oligonucleotides, BSA and the probe in the amount specified above. Samples involving the Nr2f2 protein were loaded on a 6% gel to resolve protein-DNA complexes. In reactions with cold competitors, 20x unlabeled probes were included in the reactions. Anti-NR2F2 antibody (R&D Biosystems™; cat # PP-H7147-00) was at the same amount of the Nr2f2 protein to obtain super-shifts.

[2] = biological target: T1, NR2F2 (COUP-TFII); assay: competition; 20x unlabeled mutant unable to outcompete wild-type probe in EMSA; conditions: tags: GST (pGEX2TK, E. coli BL21)
Text: as §1, §2

| Binder | binding result [1] | binding result [2] |
| --- | --- | --- |
| sele wild-type (dsDNA) DNA 1: GTAATGCCCCCTGTGACCCATATTGTCTCGCTCTTTCCTTTATA DNA 2: TATAAAGGAAAGAGCGAGACAATATGGGTCACAGGGGGCATTAC | binds | – |
| sele mutation (dsDNA) DNA 1: GTAATGCCCCCTGATTAACATATTGTCTCGCTCTTTCCTTTATA DNA 2: TATAAAGGAAAGAGCGAGACAATATGTTAATCAGGGGGCATTAC | – | no binding |
| mrc1a site 1 wild-type (dsDNA) DNA 1: TTTATGAAGCTTGTACCTTTCATTTCCTTTTTG DNA 2: CAAAAAGGAAATGAAAGGTACAAGCTTCATAAA | binds | – |
| mrc1a site 1 mutation (dsDNA) DNA 1: TTTAATTAGCAGATTTAATTTCATTTCCTTTTTG DNA 2: CAAAAAGGAAATGAAATTAAATCTGCTAATTAAA | – | no binding |
| mrc1a site 2 mutation (dsDNA) DNA 1: TTCATTTCCTTTTTGCATTAATTTATTTTC DNA 2: GAAAATAAATTAATGCAAAAAGGAAATGAA | – | no binding |
| mrc1a site 2 wild-type (dsDNA) DNA 1: TTCATTTCCTTTTTGCTGAGCTTTATTTTC DNA 2: GAAAATAAAGCTCAGCAAAAAGGAAATGAA | binds | – |

Source: patent US20210079343, “ENDOTHELIAL CELL FACTORS AND METHODS THEREOF” (THE CHILDREN'S MEDICAL CENTER CORPORATION, published 2021)
